molecular target: T1, GST fusion of the Mint1 PDZ-2 domain (740-825) (UniProt Q02410 740-825, Cys 742 replaced with Ser); assay: ELISA
T1 sequence (looked up): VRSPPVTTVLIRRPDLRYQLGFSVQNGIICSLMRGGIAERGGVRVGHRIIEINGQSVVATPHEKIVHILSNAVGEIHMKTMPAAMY

Binding result, binds:
GHLSESSQVRWL [synthetic artificial peptide GHLSESSQVRWL (positive control)], GVPARTQVEVWV [synthetic artificial peptide GVPARTQVEVWV], ASYCKQRNIVWL [synthetic artificial peptide ASYCKQRNIVWL (positive control)], GVPARTQVAVAV [doubly substituted peptide GVPARTQVAVAV], TAKCAARFPTWL [synthetic artificial peptide TAKCAARFPTWL]

Reference: PMC2823633 (The Journal of neuroscience : the official journal of the …, 2009)
